Assay results taken from article PMC4053514, “Structural Diversity in the Dandelion (Taraxacum officinale) Polyphenol Oxidase Family Results in Different Responses to Model Substrates” (PLoS ONE, 2014).
Where two headings read alike, the source gives them in different places. Blank lines part the entries; values can stand above or below the molecule they belong to.

How the values were obtained:
Test in all cases: spectrophotometric quinone formation, Michaelis-Menten fit
Type in all cases: biochemical, Taraxacum officinale
PPO-1 = test system: T1, PPO-1; conditions: 50 mM acetate-phosphate, optimal pH (5.5), 25 °C, optimal SDS concentration as activator, O2 co-substrate
T1 construct: mature protein without transit peptide, N-terminal Strep2 tag with enterokinase site spacer; E. coli Rosetta2 (DE3)
Description: spectrophotometric quinone formation, Michaelis-Menten fit on PPO-1

[1] = substrate: NCCc1ccc(O)c(O)c1; conditions: 50 mM acetate-phosphate, optimal pH (5.0), 25 °C, optimal SDS concentration as activator, O2 co-substrate
Description: spectrophotometric quinone formation, Michaelis-Menten fit on PPO-7

[2] = substrate: NCCc1ccc(O)c(O)c1; conditions: 50 mM acetate-phosphate, optimal pH (5.0), 25 °C, optimal SDS concentration as activator, O2 co-substrate; remark: listed apart in the source
Description: spectrophotometric quinone formation, Michaelis-Menten fit on PPO-6

[3] = substrate: NCCc1ccc(O)c(O)c1; conditions: 50 mM acetate-phosphate, optimal pH (6.0), 25 °C, optimal SDS concentration as activator, O2 co-substrate
Description: spectrophotometric quinone formation, Michaelis-Menten fit on PPO-2

Km (PPO-1; read-out: substrate / 4MC): 1060 ± 180 µM
Molecule: Cc1ccc(O)c(O)c1 [4-methylcatechol, 4-methylbenzene-1,2-diol]

Molecule: NCCc1ccc(O)c(O)c1 [dopamine, 4-(2-aminoethyl)benzene-1,2-diol]
Km (PPO-1; read-out: substrate / DA): 780 ± 140 µM

Km (PPO-1; read-out: substrate / L-Dopa): 8070 ± 2140 µM
Molecule: N[C@@H](Cc1ccc(O)c(O)c1)C(=O)O [dihydroxyphenylalanine, (S)-2-amino-3-(3,4-dihydroxyphenyl)propanoic acid]

Km (PPO-1; read-out: substrate / Dopac): 4950 ± 1670 µM
Molecule: O=C(O)Cc1ccc(O)c(O)c1 [dihydroxyphenylacetic acid, 2-(3,4-dihydroxyphenyl)acetic acid]

Molecule: Oc1ccccc1O [catechol, benzene-1,2-diol]
Km (PPO-1; read-out: substrate / CAT): 1190 ± 510 µM

B1: PPO-7 (Taraxacum officinale) (protein)
chain: APITTPDISTCIPSESGFNTEDSVRSNQCCPPATSSTIPKEFVFPKDTTTRIRPAAHRATPEYVAKYKAAIQAMRDLPDDHPHSFVSQAKIHCAYCNGGYTQVASGFPDKMLQVHNSWLFFPFHRWYLYFYERILGKLIDDPTFALPYWNWDHPAGMTLPAFFETDGKRNPVFDAYRNVTHVTPAAIVDLDYNGSDSGAPCLQQINTNLTAMYKQMVSNAADPLSFFGGVYKAGDDPFGNGDPSVGSVEAGCHTAVHRWVGNPRMMNTEDMGNFYSAGYDPAFYVHHANVDRMWKVWKDLGIPGHSEPTDPDWLNASFVFYDENEQLVRVYNKDCVNLENLKYDYELSPLPWLKNRPVPHTPKPVDNAAKPAIKLPEVKFPVKLDKTVKVYVKRPVKKRGKAEKDKVSEQLVLKGIKFNSTKFVKVDVFVNDQDDAPAILPSESEFVGSFAQLPHGRSGRGRGRGHGHSELMTSAARFGLTELLEDIGAEDDEYILVTLVPKAGSEDVTVEEITVELVPVNP
notes: mature protein without transit peptide, N-terminal Strep2 tag with enterokinase site spacer; E. coli Rosetta2 (DE3); tetramer
Km [1]: 4490 ± 2260 µM
kcat [1]: 22.6 ± 2.5 s⁻¹

B2: PPO-6 (Taraxacum officinale) (protein)
chain: DPITTPDISTCVASTKGFQPKNAVRTNACCPPTLSKTVKEFVFPNDRATRIRPAAHRASPEYIAKYKAAIQKMRDLEDDDPHSFVSQAKIHCAYCNGGFTQDKHPDKELQIHNSWLFFPFHRWYLYFYERILGKLIDDPTFAIPYWNWDNPAGMSLPDFFEEGGKANPAFDAYRNSSHLAPAIADLDYDGTEKNYTCIKQLSVNLGAMNKQMIRNAGDWKSFFGGEYRAGSDPIGNKDPSVGSVEAGCHTAIHRWVGNSRLPNGEDMGNFYSAGYDPVFYVHHANVDRMWKVWKDLGIRGHIEPPDNDWRNASYVFYDENKELVRVYNKDCVRLEKLKYDYQFAPIPWKNSRPVARTKKSNIALKSVGTVKQAQDSKFPLKLDKTTKVLVKRPATNRSKEDKENANEVLLIKGVVFNGEKFVKFDVFVNDKDDVTASTAEESEFAGSFAQLPHNHGDKMLMTSSARFGLTELLEDIDAEDDESILVTLVPKVGCEEVTIGEIKVELVPIEE
notes: mature protein without transit peptide, N-terminal Strep2 tag with enterokinase site spacer; E. coli Rosetta2 (DE3); disulfide-linked tetramer
Km [2]: 5620 ± 1140 µM
kcat [2]: 61.7 ± 10.6 s⁻¹

B3: PPO-2 (Taraxacum officinale) (protein)
chain: DPIMAPDLTKCGPADLPQGAVATNCCPPFTKNIIDFKLPPPSTNLRVRPAAHLANKDYIAKFNKAIELMKALPDDDPRSFKQQAAVHCAYCDGAYDQVGFPDLDLQVHNSWLFLPFHRHYLYFFEKICGKLINDPNFAIPFWNWDTPDGMTIPAIYANKNSQLYDALRDGKHQPPSLVDLDFNGEDENLSKSKQTSTNLTIMYRQMVSSSKTASLFMGSPYRAGDEANPGGGSLESIPHGPVHIWTGDRNQPNGEDMGNFYSAARDPIFYAHHANIDRMWSVWKTLGGRRNDFTDKDWLDSAFLFYDENAELVRVKVRDALDSKKLGYVYQDVGIPWLETKPEPRLKRALSKIKKKLAVARADEHIPFAKDVFPATLDKVIKVLVPRPKKSRSKKQKDAEEEILVIEGIEVKRDEFVKFDVFVNDEDDGMRATADKTEFAGSFVNVPHKHKHGKSVKTRLRLGISELLDDLGADDDDNVLVTLVPKNKGDEVSIKGMKIEYED
notes: mature protein without transit peptide, N-terminal Strep2 tag with enterokinase site spacer; E. coli Rosetta2 (DE3)
Km [3]: 940 ± 310 µM
kcat [3]: 59.5 ± 13.7 s⁻¹
